One may read the Kd as a measure of binding affinity in units of concentration. A low value points to higher affinity.

In the Immune Epitope Database (IEDB) one finds Kd data, which are given here for six sequences.

The target of experiment [1] is HLA-B*15:01. Nature of the experiment: IEDB peptide-MHC binding, purified MHC/competitive/fluorescence; filed as Kd, often an IC50 or EC50 that approximates it; ≥ and ≤ were set here for values at or beyond the usual limits of such assays. Particulars: source organism: Zaire ebolavirus.
Experiment [2] concerns the target HLA-B*39:01. Described as above.
A further experiment addresses HLA-B*18:01. The description is as above.
The target of experiment [3] is HLA-B*57:01. The experiment is described as above.
Another experiment has as its target HLA-B*46:01. Described as above.
Another experiment addresses HLA-B*45:06. The description is as above. Particulars: source organism: Zaire ebolavirus.
The target in experiment [4] is HLA-A*69:01. The experiment is described as above.
Experiment [5] concerns the target HLA-A*26:01. The description is as above.
The target in the next experiment is HLA-B*27:03. Described as above.
For a further experiment, the target named is HLA-B*15:42. Described as above. Conditions: source organism: Zaire ebolavirus.
Experiment [6] deals with HLA-A*02:01. The experiment is described as above.
The target in another experiment is HLA-B*83:01. Described as above. Particulars: source organism: Zaire ebolavirus.
Another experiment deals with HLA-B*51:01. The experiment is described as above.
A further experiment has as its target HLA-A*02:12. Nature of the experiment: IEDB peptide-MHC binding, purified MHC/direct/fluorescence; filed as Kd, often an IC50 or EC50 that approximates it; ≥ and ≤ were set here for values at or beyond the usual limits of such assays.
For the next experiment, the target named is HLA-A*68:02. The description is as above.
The next experiment addresses HLA-A*24:03. Described as above. Particulars: source organism: Zaire ebolavirus.
For the next experiment, the target named is HLA-B*40:01. The experiment is described as above.
Experiment [7] concerns the target HLA-A*02:03. The experiment is described as above.
The target of a further experiment is HLA-A*03:01. The experiment is described as above. Conditions: source organism: Zaire ebolavirus.
The target of a further experiment is HLA-A*02:19. The description is as above.
Experiment [8] deals with HLA-B*39:01. The description is as above. Particulars: source organism: Vibrio vulnificus CMCP6.
For experiment [9], the target named is HLA-B*57:01. Described as above. Conditions: source organism: Vibrio vulnificus.
A further experiment addresses HLA-A*01:01. The experiment is described as above. Particulars: source organism: Vibrio vulnificus.
For the next experiment, the target named is HLA-A*31:01. The description is as above. Conditions: source organism: Vibrio vulnificus.
In another experiment the target is HLA-B*58:01. The description is as above. Particulars: source organism: Vibrio vulnificus.
The target of experiment [10] is HLA-A*69:01. The experiment is described as above. Particulars: source organism: Vibrio vulnificus.
For experiment [11], the target named is HLA-A*26:01. The description is as above. Conditions: source organism: Vibrio vulnificus CMCP6.
The next experiment concerns the target HLA-B*15:09. The experiment is described as above.
Experiment [12] addresses HLA-B*15:17. Described as above. Particulars: source organism: Vibrio vulnificus.
The target in another experiment is HLA-A*11:01. The experiment is described as above.
For the next experiment, the target named is HLA-B*07:02. The description is as above. Particulars: source organism: Vibrio vulnificus.
Another experiment concerns the target HLA-B*48:01. The experiment is described as above. Conditions: source organism: Vibrio vulnificus.
Experiment [13] has as its target HLA-A*02:01. The experiment is described as above. Particulars: source organism: Vibrio vulnificus.
In a further experiment the target is HLA-B*27:05. The experiment is described as above. Particulars: source organism: Vibrio vulnificus.
For the next experiment, the target named is HLA-B*44:02. The description is as above. Particulars: source organism: Vibrio vulnificus.
Experiment [14] addresses HLA-B*15:01. The description is as above. Particulars: source organism: Reston ebolavirus - Reston.
For another experiment, the target named is HLA-A*02:11. The experiment is described as above.
In another experiment the target is HLA-A*02:16. The description is as above.
The target of experiment [15] is HLA-B*15:17. Nature of the experiment: IEDB peptide-MHC binding, purified MHC/competitive/fluorescence; filed as Kd, often an IC50 or EC50 that approximates it; ≥ and ≤ were set here for values at or beyond the usual limits of such assays. Conditions: source organism: Bacillus anthracis str. A0488.
In experiment [16] the target is HLA-A*02:03. The experiment is described as above. Conditions: source organism: Homo sapiens.
Setting [17] is: source organism: Zaire ebolavirus.
[18] abbreviates: source organism: Vibrio vulnificus.
Where [19] appears, read: source organism: Bacillus anthracis str. A0488.
[20] abbreviates: source organism: Bacillus cereus G9842.

Some results are limits rather than exact numbers.

Take LEARVNLSV: the Kd with HLA-B*15:01 [1] was at least 20 µM; with HLA-B*39:01 [2] (setting [17]), at least 20 µM; with HLA-B*18:01 (setting [17]), at least 20 µM; with HLA-B*57:01 [3] (setting [17]) it was at least 20 µM; in the experiment with HLA-B*46:01 (setting [17]) it was at least 20 µM; in the experiment with HLA-B*45:06 it was at least 5 µM. Besides, the Kd in the experiment with HLA-A*69:01 [4] (setting [17]) was at least 20 µM; in the experiment with HLA-A*26:01 [5] (setting [17]) it was at least 20 µM; with HLA-B*27:03 (setting [17]) it was at least 20 µM; in the experiment with HLA-B*15:42, at least 5 µM; with HLA-A*02:01 [6] (setting [17]), at least 20 µM; in the experiment with HLA-B*83:01, at least 5 µM. For the same sequence, the Kd in the experiment with HLA-B*51:01 (setting [17]) is at least 20 µM; in the experiment with HLA-A*02:12 (setting [17]) it was at least 20 µM; in the experiment with HLA-A*68:02 (setting [17]) it was at least 20 µM; with HLA-A*24:03, at least 20 µM; with HLA-B*40:01 (source organism: Sudan ebolavirus - Maleo (1979)), 2340 nM; with HLA-A*02:03 [7] (setting [17]), at least 20 µM. Also, the equilibrium dissociation constant (Kd) with HLA-A*03:01 and with HLA-A*02:19 (setting [17]) was at least 20 µM each time.
For the sequence IEFIEVVRL, the dissociation constant Kd in the experiment with HLA-B*39:01 [8], with HLA-A*68:02 (setting [18]), with HLA-B*57:01 [9], in the experiment with HLA-A*01:01, with HLA-A*31:01 and in the experiment with HLA-B*58:01 was at least 20 µM in each case. Moreover, the Kd with HLA-A*69:01 [10] was at least 20 µM; with HLA-A*26:01 [11], at least 20 µM; in the experiment with HLA-B*40:01 (setting [18]), 37.7 nM; with HLA-B*15:09 (source organism: Vibrio vulnificus CMCP6) it was at least 20000 nM; with HLA-B*15:17 [12] it was at least 20 µM; with HLA-A*11:01 (setting [18]), at least 20 µM. For the same sequence, the dissociation constant Kd in the experiment with HLA-B*07:02, in the experiment with HLA-B*48:01, with HLA-A*02:01 [13], with HLA-B*27:05 and with HLA-B*44:02 was at least 20 µM throughout.
With HLPGFGTAF, the Kd with HLA-B*39:01 [2] (setting [17]), with HLA-B*18:01 (setting [17]), with HLA-B*57:01 [3] (setting [17]), in the experiment with HLA-A*69:01 [4] (setting [17]), with HLA-B*27:03 (setting [17]) and in the experiment with HLA-A*02:01 [6] (setting [17]) was at least 20 µM throughout. Further, the Kd in the experiment with HLA-B*15:01 [14] is 72 nM; in the experiment with HLA-A*02:12 (setting [17]), at least 20 µM; with HLA-A*68:02 (setting [17]) it was at least 20 µM; in the experiment with HLA-A*02:11 (setting [17]), at least 20 µM; with HLA-A*02:03 [7] (setting [17]), at least 20 µM; with HLA-A*03:01, at least 20 µM. Moreover, the dissociation constant (Kd) in the experiment with HLA-A*02:19 (setting [17]) and with HLA-A*02:16 (setting [17]) was at least 20 µM each time.
Consider MFKNFPFFK, for which the dissociation constant Kd with HLA-B*39:01 [2] (setting [19]), in the experiment with HLA-B*18:01 (setting [19]), in the experiment with HLA-B*57:01 [3] (setting [19]), with HLA-B*46:01 (setting [19]), in the experiment with HLA-A*26:01 [5] (setting [19]) and with HLA-B*15:17 [15] was at least 20 µM throughout. Also, the Kd in the experiment with HLA-B*27:03 (setting [19]) is at least 20 µM; in the experiment with HLA-A*02:01 [6] (setting [19]) it was at least 20 µM; in the experiment with HLA-B*51:01 (setting [19]) it was at least 20 µM; with HLA-A*02:12 (setting [20]) it was at least 20 µM; with HLA-A*11:01 (setting [20]) it was at most 0.001 µM; with HLA-A*02:11 (setting [20]) it was at least 20 µM. The dissociation constant (Kd) with HLA-A*02:03 [7] (setting [20]), with HLA-A*02:19 (setting [20]) and in the experiment with HLA-A*02:16 (setting [20]) was at least 20 µM in each case.
For SRAGISVVL, the Kd with HLA-B*39:01 [2] (source organism: Serratia marcescens) came to 0.0047 µM; with HLA-B*15:09 (source organism: Salmonella enterica subsp. enterica serovar Typhimurium str. LT2), 207 nM.
With YQGSYGFRL, the dissociation constant Kd was at least 20 µM with HLA-A*69:01 [4] (source organism: Homo sapiens), 0.013 µM with HLA-A*02:01 [6] (source organism: Homo sapiens) and 2140 nM with HLA-A*02:03 [16].
